62 sequences from the supplement of paper PMC7877785 can be followed below.

± gives the uncertainty stated by the source.

The series can be described thus: self-splicing fitness, log relative to wild type (ln ratio); higher = more splicing; Tetrahymena group I intron in knt gene, E. coli kanamycin selection, DiMSum; sequences stand for … in CUCUCU…GGAGGGAAAAGUUAUCAGGCAUGCACCUGGUAGCUAGUCUUUAAACCAAUAGAUUGCAUCGGUUUAAAAGGCAAGACCGUCAAAUUGCGGGAAAGGGGUCAACAGCCGUUCAGUACCAAGUCUCAGGGGAAACUUUGAGAUGGCCUUGCAAAGGGUAUGGUAAUAAGCUGACGGACAUGGUCCUAACCACGCAGCCAAGUCCUAAGUCAACAGAUCUUCUGUUGAUAUGGAUGCAGUUCACAGACUAAAUGUCGGUCGGGGAAGAUGUAUUCUUCUCAUAAGAUAUAGUCGGACCUCUCCUUAAUGGGAGCUAGCGGAUGAAGUGAUGCAACACUGGAGCCGCUGGGAACUAAUUUGUAUGCGAAAGUAUAUUGAUUAGUUUUGGAGUACUCGUGGUCG
The method in brief: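 Six replicate transformations of E. coli BL21(DE3) with a pET-22b(+) library were grown overnight at 37°C or 30°C. The library randomised all eight P1ex-region intron nucleotides, the intron lying in the knt kanamycin-resistance gene, and plates were LB agar with or without 25 μg/mL kanamycin plus 100 μg/mL carbenicillin, 50 μM IPTG and 0.2% rhamnose. Pooled colonies were amplicon-sequenced on an Illumina HiSeq 2500, and fitness is the DiMSum error-weighted combination of wild-type-normalised replicate fold changes, kanamycin versus none.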

On to AAGAAGCAAUAUUACGAUCA, for which the “self-splicing fitness (ln)” value (30 °C) was -0.455 ± 0.08 and the “self-splicing fitness (ln)” value (37 °C) is -0.229 ± 0.099.

As for UAGCAGCAAUAUUACGUGGA, the “self-splicing fitness (ln)” value by setting is: (30 °C) -2.16 ± 0.12; (37 °C) -1.46 ± 0.11.

On to CGCCAGCAAUAUUACGUCUA, for which the “self-splicing fitness (ln)” value (37 °C) is -2.52 ± 0.3.

For ACCUAGCAAUAUUACGUUAU, the “self-splicing fitness (ln)” value is -2.43 ± 0.11 (30 °C) and -1.53 ± 0.11 (37 °C).

Take GACAAGCAAUAUUACGAUGC: the “self-splicing fitness (ln)” value reads like this: (30 °C) -1.44 ± 0.091; (37 °C) -0.732 ± 0.11.

As to CCAAAGCAAUAUUACGAGGA, the “self-splicing fitness (ln)” value was -3.54 ± 0.17 (30 °C) and -2.79 ± 0.18 (37 °C).

In the case of AAUUAGCAAUAUUACGACUA, the “self-splicing fitness (ln)” value is, setting by setting: (30 °C) 0.0301 ± 0.1; (37 °C) 0.169 ± 0.099.

With CAAUAGCAAUAUUACGACUA, the “self-splicing fitness (ln)” value was -1.96 ± 0.36 (30 °C) and -1.31 ± 0.27 (37 °C).

In the case of CUUAAGCAAUAUUACGUACU, the “self-splicing fitness (ln)” value is, setting by setting: (30 °C) -2.82 ± 0.16; (37 °C) -2.67 ± 0.23.

On to GGCGAGCAAUAUUACGGCCA, for which the “self-splicing fitness (ln)” value (30 °C) is -1.39 ± 0.21 and the “self-splicing fitness (ln)” value (37 °C) is -1.35 ± 0.27.

UAAGAGCAAUAUUACGAGUU: the “self-splicing fitness (ln)” value (30 °C) is -3.16 ± 0.14 and the “self-splicing fitness (ln)” value (37 °C) is -2.87 ± 0.23.

Consider GUAUAGCAAUAUUACGGGGC, for which the “self-splicing fitness (ln)” value (37 °C) is -1.61 ± 0.37.

Take CCCUAGCAAUAUUACGUCCG: the “self-splicing fitness (ln)” value is, setting by setting: (30 °C) -4.17 ± 0.26; (37 °C) -2.57 ± 0.23.

Consider UCAUAGCAAUAUUACGCCCA, for which the “self-splicing fitness (ln)” value runs as follows: (30 °C) -2 ± 0.21; (37 °C) -0.939 ± 0.18.

Turning to UCGUAGCAAUAUUACGGGGU, the “self-splicing fitness (ln)” value runs as follows: (30 °C) -3.35 ± 0.23; (37 °C) -2.35 ± 0.25.

Turning to GGACAGCAAUAUUACGUGAA, the “self-splicing fitness (ln)” value (30 °C) is -0.306 ± 0.057 and the “self-splicing fitness (ln)” value (37 °C) was -0.142 ± 0.062.

Consider GUUCAGCAAUAUUACGUUAA, for which the “self-splicing fitness (ln)” value was -1.02 ± 0.11 (30 °C) and -0.264 ± 0.12 (37 °C).

As to CCCAAGCAAUAUUACGACUG, the “self-splicing fitness (ln)” value is, setting by setting: (30 °C) -3.41 ± 0.14; (37 °C) -3.49 ± 0.23.

Regarding AAAUAGCAAUAUUACGUUCA, the “self-splicing fitness (ln)” value runs as follows: (30 °C) -0.751 ± 0.094; (37 °C) 0.187 ± 0.12.

In the case of UCGCAGCAAUAUUACGGAUC, the “self-splicing fitness (ln)” value (30 °C) was -3.82 ± 0.35.

For the sequence UAGGAGCAAUAUUACGCAGG, the “self-splicing fitness (ln)” value (30 °C) is -2 ± 0.21.

Turning to UGGCAGCAAUAUUACGAAUA, the “self-splicing fitness (ln)” value is -1.36 ± 0.12 (30 °C) and -0.17 ± 0.13 (37 °C).

Regarding CGCUAGCAAUAUUACGGAGG, the “self-splicing fitness (ln)” value by setting is: (30 °C) -1.78 ± 0.099; (37 °C) -0.655 ± 0.13.

As to CAAAAGCAAUAUUACGUGUA, the “self-splicing fitness (ln)” value by setting is: (30 °C) -3.88 ± 0.16; (37 °C) -2.25 ± 0.1.

CUCGAGCAAUAUUACGUCAU: the “self-splicing fitness (ln)” value (30 °C) was -4.1 ± 0.27 and the “self-splicing fitness (ln)” value (37 °C) is -3.38 ± 0.28.

In the case of AUUCAGCAAUAUUACGCUCU, the “self-splicing fitness (ln)” value is -0.186 ± 0.094 (30 °C) and 0.683 ± 0.12 (37 °C).

In the case of UUGCAGCAAUAUUACGGACU, the “self-splicing fitness (ln)” value is -1.3 ± 0.18 (30 °C) and -1.7 ± 0.29 (37 °C).

Regarding GCAUAGCAAUAUUACGGUUC, the “self-splicing fitness (ln)” value by setting is: (30 °C) -2.21 ± 0.12; (37 °C) -0.892 ± 0.13.

For the sequence AACGAGCAAUAUUACGCUCG, for the setting “30 °C”, the “self-splicing fitness (ln)” value is -2.55 ± 0.35.

As for CGGGAGCAAUAUUACGCUCG, the “self-splicing fitness (ln)” value (37 °C) is -0.772 ± 0.32.

Take CUGGAGCAAUAUUACGAUUU: the “self-splicing fitness (ln)” value was -4.07 ± 0.46 (30 °C) and -2.01 ± 0.34 (37 °C).

For the sequence AAAUAGCAAUAUUACGUCAU, the “self-splicing fitness (ln)” value was -2.45 ± 0.08 (30 °C) and -1.51 ± 0.11 (37 °C).

Turning to GACAAGCAAUAUUACGCGAA, the “self-splicing fitness (ln)” value (30 °C) is -2.8 ± 0.16 and the “self-splicing fitness (ln)” value (37 °C) is -1.88 ± 0.14.

For UCGCAGCAAUAUUACGUUCU, the “self-splicing fitness (ln)” value was -3.58 ± 0.18 (30 °C) and -2.31 ± 0.11 (37 °C).

In the case of UGACAGCAAUAUUACGCUUA, the “self-splicing fitness (ln)” value was -1.26 ± 0.088 (30 °C) and -0.0997 ± 0.094 (37 °C).

As to CACCAGCAAUAUUACGGCGG, the “self-splicing fitness (ln)” value was -0.993 ± 0.065 (30 °C) and -0.567 ± 0.079 (37 °C).

With GAUGAGCAAUAUUACGGAAA, the “self-splicing fitness (ln)” value (37 °C) was -2.2 ± 0.31.

For the sequence CCUAAGCAAUAUUACGCGUG, the “self-splicing fitness (ln)” value is -3.34 ± 0.13 (30 °C) and -2.48 ± 0.13 (37 °C).

For UGGUAGCAAUAUUACGGGCC, the “self-splicing fitness (ln)” value (30 °C) is -1.4 ± 0.23.

For AUUAAGCAAUAUUACGUGGG, the “self-splicing fitness (ln)” value (30 °C) is -3.45 ± 0.17 and the “self-splicing fitness (ln)” value (37 °C) was -2.44 ± 0.16.

With GGUCAGCAAUAUUACGGACG, the “self-splicing fitness (ln)” value (30 °C) is -0.915 ± 0.11 and the “self-splicing fitness (ln)” value (37 °C) was found to be 0.0247 ± 0.16.

GGCCAGCAAUAUUACGGGAG: the “self-splicing fitness (ln)” value (30 °C) is -2.14 ± 0.13 and the “self-splicing fitness (ln)” value (37 °C) is -0.796 ± 0.12.

As to AUAGAGCAAUAUUACGGAAA, the “self-splicing fitness (ln)” value is -2.73 ± 0.22 (30 °C) and -2.19 ± 0.38 (37 °C).

For CGUUAGCAAUAUUACGUACU, the “self-splicing fitness (ln)” value reads like this: (30 °C) -0.583 ± 0.078; (37 °C) 0.0264 ± 0.097.

As to UGAGAGCAAUAUUACGGUAG, the “self-splicing fitness (ln)” value (30 °C) is -3.74 ± 0.34 and the “self-splicing fitness (ln)” value (37 °C) is -2.88 ± 0.38.

In the case of GCGAAGCAAUAUUACGGUUU, the “self-splicing fitness (ln)” value (30 °C) is -3.22 ± 0.13 and the “self-splicing fitness (ln)” value (37 °C) is -1.62 ± 0.13.

Take GCGUAGCAAUAUUACGAAUU: the “self-splicing fitness (ln)” value (30 °C) was -1.52 ± 0.1 and the “self-splicing fitness (ln)” value (37 °C) was -0.549 ± 0.12.

Turning to UCAGAGCAAUAUUACGGUUG, the “self-splicing fitness (ln)” value runs as follows: (30 °C) -3.9 ± 0.31; (37 °C) -2.35 ± 0.26.

Regarding UCAAAGCAAUAUUACGCUUU, the “self-splicing fitness (ln)” value is, setting by setting: (30 °C) -3.89 ± 0.46; (37 °C) -1.72 ± 0.27.

ACCGAGCAAUAUUACGCCAU: the “self-splicing fitness (ln)” value (30 °C) was -4.46 ± 0.36 and the “self-splicing fitness (ln)” value (37 °C) is -2.05 ± 0.22.

Consider CAGAAGCAAUAUUACGAUCU, for which the “self-splicing fitness (ln)” value runs as follows: (30 °C) -1.88 ± 0.12; (37 °C) -0.995 ± 0.1.

For the sequence GGUAAGCAAUAUUACGGAUG, the “self-splicing fitness (ln)” value (30 °C) was -3.57 ± 0.34 and the “self-splicing fitness (ln)” value (37 °C) was -2.09 ± 0.18.

For GGGCAGCAAUAUUACGCGUU, the “self-splicing fitness (ln)” value reads like this: (30 °C) -0.662 ± 0.073; (37 °C) -0.349 ± 0.087.

As to CAUGAGCAAUAUUACGGAUU, the “self-splicing fitness (ln)” value reads like this: (30 °C) -3.76 ± 0.21; (37 °C) -2.52 ± 0.26.

Take CCCAAGCAAUAUUACGAAAG: the “self-splicing fitness (ln)” value is, setting by setting: (30 °C) -3.49 ± 0.17; (37 °C) -3.39 ± 0.31.

As to UCUAAGCAAUAUUACGUGAA, the “self-splicing fitness (ln)” value was -1.68 ± 0.088 (30 °C) and -0.923 ± 0.099 (37 °C).

For the sequence GCUGAGCAAUAUUACGUGUC, the “self-splicing fitness (ln)” value is, setting by setting: (30 °C) -2.78 ± 0.18; (37 °C) -1.3 ± 0.16.

As for ACACAGCAAUAUUACGCACA, the “self-splicing fitness (ln)” value was -1.16 ± 0.1 (30 °C) and -0.111 ± 0.1 (37 °C).

Consider CCUAAGCAAUAUUACGUGCG, for which the “self-splicing fitness (ln)” value (30 °C) was -2.59 ± 0.13 and the “self-splicing fitness (ln)” value (37 °C) was -1.03 ± 0.12.

Turning to UGCUAGCAAUAUUACGCUGG, the “self-splicing fitness (ln)” value by setting is: (30 °C) -3.07 ± 0.23; (37 °C) -2.25 ± 0.32.

On to GGCUAGCAAUAUUACGCCUC, for which the “self-splicing fitness (ln)” value is -1.35 ± 0.18 (30 °C) and -0.927 ± 0.23 (37 °C).

As to GAUGAGCAAUAUUACGAAAC, the “self-splicing fitness (ln)” value (30 °C) is -3.2 ± 0.26 and the “self-splicing fitness (ln)” value (37 °C) was -2.43 ± 0.24.
